Ends that are not written are not given here. * marks the point of attachment. FITC = O=C1OC2(c3ccc(O)cc3Oc3cc(O)ccc32)c2ccc(NC(=S)*)cc21; Ahx = NCCCCCC(=O)O
B3: myeloid cell leukemia-1 (MCL1), residues 163-326 (domain or fragment, human, UniProt Q07820 163-326, looked up)
chain: TPPPAEEEEDELYRQSLEIISRYLREQATGAKDTKPMGRSGATSRKALETLRRVGDGVQRNHETAFQGMLRKLDIKNEDDVKSLSRVMIHVFSDGVTNWGRIVTLISFGAFVAKHLKTINQESCIEPLAESITDVLVRTKRDWLVKQRGWDGFVEFFHVEDLEG
notes: human MCL1, UniProt Q07820, residues 163-326, cloned into pET28a; also called recombinant MCL1; source: E. coli BL21 (DE3), purified (nickel chromatography, gel filtration)
B4: RNA recognition motif 1 (RRM1) of polypyrimidine tract binding protein 1 (PTBP1), residues 55-147 (domain or fragment, human, UniProt P26599 55-147, looked up)
chain: GVPSRVIHIRKLPIDVTEGEVISLGLPFGKVTNLLMLKGKNQAFIEMNTEEAANTMVNYYTSVTPVLRGQPIYIQFSNHKELKTDSSPNQARA
notes: human PTBP1 RRM1, UniProt P26599, residues 55-147, cloned into pET28a; 15N-labelled for the NMR experiment; also called PTBP1-RRM1; recombinant wildtype RRM1 protein; source: E. coli BL21 (DE3), purified (nickel chromatography, gel filtration)

What was measured:
[1] = target: B3; test: fluorescence polarisation; direct FPA: 10 nM FITC-RRM1_(rBH3) peptide, recombinant MCL1 titrated; 1x PBS pH 7.4, 1% DMSO; settings: both partners purified
[2] = target: B3; test: fluorescence polarisation; competitive FPA: 100 nM MCL1, 10 nM FITC-BAK BH3 peptide, unlabeled RRM1 titrated; 1x PBS pH 7.4, 0.1% DMSO; settings: both partners purified
[3] = target: B4; test: fluorescence polarisation; competitive FPA: 50 nM RRM1, 0.5 nM FTSC-labeled RNA from the 3'UTR of MCL1 mRNA, MCL1 titrated; 1x PBS pH 7.4, 1% DMSO, background of tRNA; settings: both partners purified
PTBP1 RRM1 = PTBP1 RRM1 (human, UniProt P26599 55-147); test: fluorescence polarization; tRNA background; 0.5 nM RNA; FP: 1x PBS pH 7.4, 1% DMSO, tRNA background, temperature not stated; EMSA: 10 mM Hepes pH 7.3, 20 mM KCl, 1 mM MgCl2, 1 mM DTT, tRNA (10 ug/ml in Methods, 10 ug/uL in Fig S2 legend), room temperature, 1% TBE agarose; settings: protein: recombinant; tags: N-terminal His6 (pET28a); label: 3' FTSC (fluorescein-5-thiosemicarbazide); single-stranded, designed as unstructured

B1: FITC-labeled peptide containing the RRM1 rBH3 sequence (peptide)
peptide: {FITC-Ahx}-NTEEAANTMVNYYTSVTPVLRGQ
notes: stretch of PTBP1 RRM1 with the rBH3 motif (E104-Y114) on the alpha2 helix; also called F-RRM1_(rBH3); FITC-RRM1_(rBH3); source: synthetic peptide (GenScript)
Kd [1]: < 10 nM

B2: FITC-labeled BAK peptide derived from its BH3 sequence (peptide)
peptide: {FITC-Ahx}-GQVGRQLAIIGDDINRRYD
notes: also called F-BAKBH3; FITC-BAK; source: synthetic peptide
binding result [2]: binds

B3
IC50 [3]: 74.6 ± 37.3 nM

B4
IC50 [2]: 88 ± 3 nM

ACGCUUCUCUCAGGGAAAAACAUGC (ssRNA) [MCL1 3'UTR 25-mer RNA]
Kd (PTBP1 RRM1): 16.1 ± 7.6 nM
